Test results as given in US20110158985A1 (published 2011).
Values joined by “and” are separate entries in the source; they are usually repeats but may differ in a detail not shown here. Equal values may be shown once. Read-outs that look alike come from different tables or passages of the source.

How the values were obtained:
murine FcRn = target: T1, murine FcRn (mouse, UniProt P01887 21-119); assay: SPR (BIAcore 3000), FcRn over immobilised IgG1, pH 6.0, Scatchard
T1 construct: also called mouse FcRn; muFcRn
T1 sequence: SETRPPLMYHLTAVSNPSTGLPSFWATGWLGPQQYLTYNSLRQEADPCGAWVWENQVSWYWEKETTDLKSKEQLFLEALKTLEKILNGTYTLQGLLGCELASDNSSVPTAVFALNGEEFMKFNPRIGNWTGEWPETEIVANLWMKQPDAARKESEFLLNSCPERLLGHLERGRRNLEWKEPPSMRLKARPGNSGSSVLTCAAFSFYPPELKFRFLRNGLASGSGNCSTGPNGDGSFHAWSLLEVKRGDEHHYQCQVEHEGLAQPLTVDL
T1 sequence (b2m): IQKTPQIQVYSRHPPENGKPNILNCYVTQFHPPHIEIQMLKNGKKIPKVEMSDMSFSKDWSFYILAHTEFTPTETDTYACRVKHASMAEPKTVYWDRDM
Description: IgG1 variants was monitored by surface plasmon resonance detection using a BIAcore 3000 instrument (Pharmacia Biosensor, Uppsala, Sweden). […] The protein concentrations ranged from 3-5 μg/ml in 10 mM sodium acetate, pH 5.0. The activation period was set for 7 minutes at a flow rate of 10 μl/min and the immobilization period was set to between 10 and 20 minutes at a flow rate of 10 μl/min. […] Human and murine FcRn were buffer exchanged against 50 mM PBS buffer pH 6.0 containing 0.05% Tween 20. Dilutions were made in the same buffer. All binding experiments were performed at 25° C. with concentrations ranging from 120 to 1 μg/ml at a flow rate of 5 to 10 μl/min; data were collected for 25 to 50 minutes and three 1-minute pulses of PBS buffer pH 7.2 were used to regenerate the surfaces. FcRn was also flowed over an uncoated cell and the sensorgrams from these blank runs subtracted from those obtained with IgG1-coupled chips. Runs were analyzed using the software BIAevaluation 3.1 (Pharmacia). Association constants (KAs) were determined from Scatchard analysis by measuring the concentration of free reactants and complex at equilibrium after correction for nonspecific binding.

[1] = target: T2, F protein of RSV (Long strain) (RSV (Long strain), UniProt P12568 26-574); assay: cell-based or functional assay
Target sequence in this assay (P12568 26-574): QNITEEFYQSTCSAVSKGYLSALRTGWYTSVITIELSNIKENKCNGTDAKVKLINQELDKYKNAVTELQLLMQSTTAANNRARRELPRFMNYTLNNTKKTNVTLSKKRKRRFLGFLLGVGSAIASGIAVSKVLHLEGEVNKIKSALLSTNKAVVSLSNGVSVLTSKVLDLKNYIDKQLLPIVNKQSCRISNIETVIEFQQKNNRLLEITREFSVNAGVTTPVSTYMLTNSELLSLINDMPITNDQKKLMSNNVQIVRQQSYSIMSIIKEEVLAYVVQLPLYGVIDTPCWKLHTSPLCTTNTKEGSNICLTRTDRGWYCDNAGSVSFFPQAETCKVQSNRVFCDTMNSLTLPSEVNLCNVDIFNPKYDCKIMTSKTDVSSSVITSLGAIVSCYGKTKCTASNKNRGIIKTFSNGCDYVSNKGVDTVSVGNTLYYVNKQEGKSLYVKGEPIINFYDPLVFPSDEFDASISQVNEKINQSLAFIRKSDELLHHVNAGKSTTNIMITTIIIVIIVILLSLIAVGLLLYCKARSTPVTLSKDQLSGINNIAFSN

[2] = target: T2, F protein of RSV (Long strain); assay: cell-based or functional assay; remark: listed apart in the source
[3] = target: T3, RSV F glycoprotein (NUF4) (respiratory syncytial virus); assay: SPR (BIAcore), mAb vs NUF4 (1:1)
T3 chain 1: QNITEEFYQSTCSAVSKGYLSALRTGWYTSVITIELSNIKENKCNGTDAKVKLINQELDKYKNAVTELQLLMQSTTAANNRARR
T3 chain 2: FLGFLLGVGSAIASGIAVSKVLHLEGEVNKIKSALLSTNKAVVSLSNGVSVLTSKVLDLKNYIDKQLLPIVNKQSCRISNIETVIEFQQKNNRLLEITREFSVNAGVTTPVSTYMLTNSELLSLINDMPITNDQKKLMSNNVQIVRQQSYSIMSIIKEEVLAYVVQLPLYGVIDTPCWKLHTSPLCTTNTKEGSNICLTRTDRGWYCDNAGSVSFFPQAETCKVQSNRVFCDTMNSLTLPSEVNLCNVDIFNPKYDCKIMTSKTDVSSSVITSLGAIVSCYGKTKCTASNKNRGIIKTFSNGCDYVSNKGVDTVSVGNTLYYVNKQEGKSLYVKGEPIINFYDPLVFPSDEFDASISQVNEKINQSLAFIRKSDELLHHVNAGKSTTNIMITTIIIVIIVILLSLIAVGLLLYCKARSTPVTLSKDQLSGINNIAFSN

[4] = target: T3, RSV F glycoprotein (NUF4); assay: SPR (BIAcore), mAb vs NUF4 (2:1)
Bac-F = Bac-F (respiratory syncytial virus); assay: SPR (BIAcore), mAb vs Bac-F (1:1)
[5] = target: T4, recombinant C-terminally truncated RSV (A2 strain) F protein (RSV (A2 strain), UniProt P03420 26-524); assay: SPR (BIAcore), IgG over immobilised F
T4 construct: extracellular domain; also called truncated F protein; extracellular domain of the F protein from RSV A2

[6] = target: T2, F protein of RSV (Long strain); assay: cell-based or functional assay; remark: listed apart in the source
[7] = target: T4, recombinant C-terminally truncated RSV …; assay: SPR (BIAcore), Fab over immobilised F
Target sequence in this assay (P03420 137-524): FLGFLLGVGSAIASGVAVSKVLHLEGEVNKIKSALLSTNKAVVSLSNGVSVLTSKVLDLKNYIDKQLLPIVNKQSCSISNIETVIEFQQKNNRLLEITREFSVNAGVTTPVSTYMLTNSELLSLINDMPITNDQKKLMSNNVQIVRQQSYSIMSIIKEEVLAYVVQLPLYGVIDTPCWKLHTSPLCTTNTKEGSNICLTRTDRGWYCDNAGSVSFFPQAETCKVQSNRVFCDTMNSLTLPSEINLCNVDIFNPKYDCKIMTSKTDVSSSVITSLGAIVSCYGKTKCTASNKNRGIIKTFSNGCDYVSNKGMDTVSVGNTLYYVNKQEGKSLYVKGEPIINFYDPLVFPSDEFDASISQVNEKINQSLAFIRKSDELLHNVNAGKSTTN

[8] = target: T4, recombinant C-terminally truncated RSV …; assay: SPR (BIAcore), Fab over immobilised F; remark: listed apart in the source
[9] = target: T4, recombinant C-terminally truncated RSV …; assay: SPR (BIAcore), Fab over immobilised F; remark: listed apart in the source
Target sequence in this assay (P03420 26-109, chain 1 of 2): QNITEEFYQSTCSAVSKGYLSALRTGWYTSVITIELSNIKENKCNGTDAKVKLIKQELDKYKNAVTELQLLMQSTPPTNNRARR
Target sequence in this assay (P03420 137-524, chain 2 of 2): as the sequence (P03420 137-524) above

Sequence of Bac-F (respiratory syncytial virus) (P03420 26-524): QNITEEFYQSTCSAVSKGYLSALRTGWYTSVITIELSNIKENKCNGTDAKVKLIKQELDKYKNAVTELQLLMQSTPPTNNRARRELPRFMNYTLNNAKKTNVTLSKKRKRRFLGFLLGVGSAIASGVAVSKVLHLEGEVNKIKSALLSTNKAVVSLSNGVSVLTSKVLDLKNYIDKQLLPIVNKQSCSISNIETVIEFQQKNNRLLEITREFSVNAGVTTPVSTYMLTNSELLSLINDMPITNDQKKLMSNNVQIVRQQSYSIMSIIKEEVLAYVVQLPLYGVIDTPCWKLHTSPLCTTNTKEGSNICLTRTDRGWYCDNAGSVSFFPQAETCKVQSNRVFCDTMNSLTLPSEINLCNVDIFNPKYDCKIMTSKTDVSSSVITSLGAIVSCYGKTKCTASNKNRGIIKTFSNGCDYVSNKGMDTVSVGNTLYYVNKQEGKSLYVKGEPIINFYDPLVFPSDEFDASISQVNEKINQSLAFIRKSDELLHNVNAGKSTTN

B1: human IgG1 MEDI-493 (palivizumab) H433K/N434F/Y436H (antibody)
heavy: QVTLRESGPALVKPTQTLTLTCTFSGFSLSTSGMSVGWIRQPPGKALEWLADIWWDDKKDYNPSLKSRLTISKDTSKNQVVLKVTNMDPADTATYYCARSMITNWYFDVWGAGTTVTVSSASTKGPSVFPLAPSSKSTSGGTAALGCLVKDYFPEPVTVSWNSGALTSGVHTFPAVLQSSGLYSLSSVVTVPSSSLGTQTYICNVNHKPSNTKVDKRVEPKSCDKTHTCPPCPAPELLGGPSVFLFPPKPKDTLMISRTPEVTCVVVDVSHEDPEVKFNWYVDGVEVHNAKTKPREEQYNSTYRVVSVLTVLHQDWLNGKEYKCKVSNKALPAPIEKTISKAKGQPREPQVYTLPPSREEMTKNQVSLTCLVKGFYPSDIAVEWESNGQPENNYKTTPPVLDSDGSFFLYSKLTVDKSRWQQGNVFSCSVMHEALKFHHTQKSLSLSPGK
light: DIQMTQSPSTLSASVGDRVTITCKCQLSVGYMHWYQQKPGKAPKLLIYDTSKLASGVPSRFSGSGSGTEFTLTISSLQPDDFATYYCFQGSGYPFTFGGGTKLEIKRTVAAPSVFIFPPSDEQLKSGTASVVCLLNNFYPREAKVQWKVDNALQSGNSQESVTEQDSKDSTYSLSSTLTLSKADYEKHKVYACEVTHQGLSSPVTKSFNRGEC
- Kd (murine FcRn): 14 nM
- ΔΔG (murine FcRn): 1.8 kcal/mol

B2: human IgG1 MEDI-493 (palivizumab) N434F/Y436H (antibody)
heavy: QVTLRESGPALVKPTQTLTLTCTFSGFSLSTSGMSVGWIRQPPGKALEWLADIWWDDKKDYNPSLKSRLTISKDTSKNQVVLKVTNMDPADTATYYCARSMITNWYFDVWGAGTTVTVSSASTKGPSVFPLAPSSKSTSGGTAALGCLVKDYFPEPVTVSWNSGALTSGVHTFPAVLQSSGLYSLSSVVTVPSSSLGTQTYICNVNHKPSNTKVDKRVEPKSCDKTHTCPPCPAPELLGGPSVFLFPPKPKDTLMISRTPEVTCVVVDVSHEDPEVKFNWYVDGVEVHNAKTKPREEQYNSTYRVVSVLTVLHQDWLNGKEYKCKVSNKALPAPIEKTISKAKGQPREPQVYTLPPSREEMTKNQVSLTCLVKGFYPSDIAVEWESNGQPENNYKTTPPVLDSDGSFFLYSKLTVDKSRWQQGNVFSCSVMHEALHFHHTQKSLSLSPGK
light: DIQMTQSPSTLSASVGDRVTITCKCQLSVGYMHWYQQKPGKAPKLLIYDTSKLASGVPSRFSGSGSGTEFTLTISSLQPDDFATYYCFQGSGYPFTFGGGTKLEIKRTVAAPSVFIFPPSDEQLKSGTASVVCLLNNFYPREAKVQWKVDNALQSGNSQESVTEQDSKDSTYSLSSTLTLSKADYEKHKVYACEVTHQGLSSPVTKSFNRGEC
- Kd (murine FcRn): 9 nM
- ΔΔG (murine FcRn): 2 kcal/mol

B3: human IgG1 MEDI-493 (palivizumab) M252W (antibody)
heavy: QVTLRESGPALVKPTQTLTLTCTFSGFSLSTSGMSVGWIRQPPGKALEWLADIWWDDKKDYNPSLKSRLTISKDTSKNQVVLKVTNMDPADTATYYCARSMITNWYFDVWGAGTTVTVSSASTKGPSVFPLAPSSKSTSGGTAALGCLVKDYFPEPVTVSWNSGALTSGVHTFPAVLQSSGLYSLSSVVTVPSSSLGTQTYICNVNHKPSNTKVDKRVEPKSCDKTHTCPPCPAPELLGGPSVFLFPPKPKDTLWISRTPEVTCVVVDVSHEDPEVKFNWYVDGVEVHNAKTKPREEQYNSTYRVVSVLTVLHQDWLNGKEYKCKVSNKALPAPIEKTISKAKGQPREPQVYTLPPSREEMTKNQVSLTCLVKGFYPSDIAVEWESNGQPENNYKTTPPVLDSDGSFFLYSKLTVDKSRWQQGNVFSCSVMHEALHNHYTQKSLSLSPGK
light: DIQMTQSPSTLSASVGDRVTITCKCQLSVGYMHWYQQKPGKAPKLLIYDTSKLASGVPSRFSGSGSGTEFTLTISSLQPDDFATYYCFQGSGYPFTFGGGTKLEIKRTVAAPSVFIFPPSDEQLKSGTASVVCLLNNFYPREAKVQWKVDNALQSGNSQESVTEQDSKDSTYSLSSTLTLSKADYEKHKVYACEVTHQGLSSPVTKSFNRGEC
- Kd (murine FcRn): 30 nM
- ΔΔG (murine FcRn): 1.3 kcal/mol

B4: human IgG1 MEDI-493 (palivizumab) M252Y/T256Q (antibody)
heavy: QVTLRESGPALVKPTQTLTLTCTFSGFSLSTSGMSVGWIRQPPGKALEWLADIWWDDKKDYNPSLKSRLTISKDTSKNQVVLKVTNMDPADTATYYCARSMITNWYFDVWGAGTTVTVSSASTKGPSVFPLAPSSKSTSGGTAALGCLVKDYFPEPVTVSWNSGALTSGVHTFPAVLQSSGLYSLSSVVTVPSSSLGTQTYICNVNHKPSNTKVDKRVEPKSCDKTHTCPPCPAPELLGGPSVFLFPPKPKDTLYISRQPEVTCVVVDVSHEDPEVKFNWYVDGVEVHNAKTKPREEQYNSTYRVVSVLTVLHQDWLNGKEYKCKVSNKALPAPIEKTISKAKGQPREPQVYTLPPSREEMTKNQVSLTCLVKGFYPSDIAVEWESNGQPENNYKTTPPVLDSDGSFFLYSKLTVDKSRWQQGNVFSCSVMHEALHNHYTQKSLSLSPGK
light: DIQMTQSPSTLSASVGDRVTITCKCQLSVGYMHWYQQKPGKAPKLLIYDTSKLASGVPSRFSGSGSGTEFTLTISSLQPDDFATYYCFQGSGYPFTFGGGTKLEIKRTVAAPSVFIFPPSDEQLKSGTASVVCLLNNFYPREAKVQWKVDNALQSGNSQESVTEQDSKDSTYSLSSTLTLSKADYEKHKVYACEVTHQGLSSPVTKSFNRGEC
- Kd (murine FcRn): 39 nM
- ΔΔG (murine FcRn): 1.1 kcal/mol

B5: P12f2 IgG (antibody, V domains shown)
VH: QVTLRESGPALVKPTQTLTLTCTFSGFSLSTPGMSVGWIRQPPGKALEWLADIWWDDKKHYNPSLKDRLTISKDTSKNQVVLKVTNMDPADTATYYCARDMIFNFYFDVWGQGTTVTVSS
VL: DIQMTQSPSTLSASVGDRVTITCSLSSRVGYMHWYQQKPGKAPKLLIYDTFYLSSGVPSRFSGSGSGTEFTLTISSLQPDDFATYYCFQGSGYPFTFGGGTKVEIKR
- Mean IC50 (Control) [1]: 0.0223 µg/mL
- Mean IC50 (Curve) [1]: 0.0231 µg/mL
- Microneutralization IC50, IgG [2]: 0.0231 µg/ml and 0.15 nM
- Kd [3]: 0.33 nM
- fold in parentheses (palivizumab = 1) [3]: 26 fold
- koff [3]: 0.000178 s⁻¹
- kon [3]: 541000 M⁻¹ s⁻¹
- Kd [4]: 0.84 nM
- fold in parentheses (palivizumab = 1) [4]: 371 fold
- koff [4]: 0.000236 s⁻¹
- kon [4]: 282000 M⁻¹ s⁻¹
- Kd (Bac-F): 0.31 nM
- fold in parentheses (palivizumab = 1) (Bac-F): 13 fold
- Kd [5]: 0.314 nM
- koff [5]: 0.000128 s⁻¹
- kon [5]: 407000 M⁻¹ s⁻¹

B6: S32A Fab (Fab, name in Kabat numbering, V domains shown)
VH: QVTLRESGPALVKPTQTLTLTCTFSGFSLSTAGMSVGWIRQPPGKALEWLADIWWDDKKDYNPSLKSRLTISKDTSKNQVVLKVTNMDPADTATYYCARSMITNWYFDVWGQGTTVTVSS
VL: DIQMTQSPSTLSASVGDRVTITCSASSSVGYMHWYQQKPGKAPKLLIYDTSKLASGVPSRFSGSGSGTEFTLTISSLQPDDFATYYCFQGSGYPFTFGGGTKVEIK
- Microneutralization IC50, Fab [6]: 4.85 µg/ml and 97 nM
- fold improvement in affinity over 493L1FR Fab [7]: 3 to 7 fold
- Kd [8]: 0.47 nM
- koff [8]: 9.3e-05 s⁻¹
- kon [8]: 196000 M⁻¹ s⁻¹

B7: PFFF Fab (Fab, name in Kabat numbering, V domains shown)
VH: QVTLRESGPALVKPTQTLTLTCTFSGFSLSTPGMSVGWIRQPPGKALEWLADIWWDDKKDYNPSLKSRLTISKDTSKNQVVLKVTNMDPADTATYYCARSMITNFYFDVWGQGTTVTVSS
VL: DIQMTQSPSTLSASVGDRVTITCSASSSVGYMHWYQQKPGKAPKLLIYDTFKLASGVPSRFSGSGSGTEFTLTISSLQPDDFATYYCFQGSFYPFTFGGGTKVEIK
- fold higher affinity than palivizumab Fab [7]: > 117 fold
- Kd [8]: ≤ 0.045 nM
- koff [8]: ≤ 5e-06 s⁻¹
- kon [8]: 110000 M⁻¹ s⁻¹

B8: A17f5 Fab (Fab, V domains shown)
VH: QVTLRESGPALVKPTQTLTLTCTFSGFSLSTAGMSVGWIRQPPGKALEWLADIWWDDKKDYNPSLKDRLTISKDTSKNQVVLKVTNMDPADTATYYCARDMIFNWYFDVWGQGTTVTVSS
VL: DIQMTQSPSTLSASVGDRVTITCSLSSRVGYMHWYQQKPGKAPKLLIYDTFRHTSGVPSRFSGSGSGTEFTLTISSLQPDDFATYYCFQGSGYPFTFGGGTKVEIK
- Microneutralization IC50, Fab [2]: 0.106 µg/ml and 2.12 nM
- fold improvement in koff (against palivizumab Fab) [7]: 8 fold
- fold increase in kon over W100F [7]: 3 fold
- Kd [9]: 0.154 nM
- koff [9]: 8.4e-05 s⁻¹
- kon [9]: 544000 M⁻¹ s⁻¹

B9: AFFG Fab (Fab, name in Kabat numbering, V domains shown)
VH: QVTLRESGPALVKPTQTLTLTCTFSGFSLSTAGMSVGWIRQPPGKALEWLADIWWDDKKDYNPSLKSRLTISKDTSKNQVVLKVTNMDPADTATYYCARSMITNFYFDVWGQGTTVTVSS
VL: DIQMTQSPSTLSASVGDRVTITCSASSSVGYMHWYQQKPGKAPKLLIYDTFKLASGVPSRFSGSGSGTEFTLTISSLQPDDFATYYCFQGSGYPFTFGGGTKVEIK
- Microneutralization IC50, Fab [6]: 0.249 µg/ml and 4.98 nM
- fold higher affinity than palivizumab Fab [7]: > 117 fold
- Kd [8]: ≤ 0.038 nM
- koff [8]: ≤ 5e-06 s⁻¹
- kon [8]: 133000 M⁻¹ s⁻¹

B10: P12f4 IgG (antibody, V domains shown)
VH: QVTLRESGPALVKPTQTLTLTCTFSGFSLSTPGMSVGWIRQPPGKALEWLADIWWDGKKHYNPSLKDRLTISKDTSKNQVVLKVTNMDPADTATYYCARDMIFNFYFDVWGQGTTVTVSS
VL: DIQMTQSPSTLSASVGDRVTITCSLSSRVGYMHWYQQKPGKAPKLLIYDTRGLPSGVPSRFSGSGSGTEFTLTISSLQPDDFATYYCFQGSGYPFTFGGGTKVEIKR
- Mean IC50 (Control) [1]: 0.0235 µg/mL
- Mean IC50 (Curve) [1]: 0.0242 µg/mL
- Microneutralization IC50, IgG [2]: 0.242 µg/ml and 0.16 nM
- Kd [3]: 0.24 nM
- fold in parentheses (palivizumab = 1) [3]: 36 fold
- koff [3]: 0.000229 s⁻¹
- kon [3]: 943000 M⁻¹ s⁻¹
- Kd [4]: 2.33 nM
- fold in parentheses (palivizumab = 1) [4]: 134 fold
- koff [4]: 0.000636 s⁻¹
- kon [4]: 273000 M⁻¹ s⁻¹
- Kd (Bac-F): 0.11 nM
- fold in parentheses (palivizumab = 1) (Bac-F): 35 fold
- Kd [5]: 0.112 nM
- koff [5]: 5.55e-05 s⁻¹
- kon [5]: 495000 M⁻¹ s⁻¹

B11: AFFY Fab (Fab, name in Kabat numbering, V domains shown)
VH: QVTLRESGPALVKPTQTLTLTCTFSGFSLSTAGMSVGWIRQPPGKALEWLADIWWDDKKDYNPSLKSRLTISKDTSKNQVVLKVTNMDPADTATYYCARSMITNFYFDVWGQGTTVTVSS
VL: DIQMTQSPSTLSASVGDRVTITCSASSSVGYMHWYQQKPGKAPKLLIYDTFKLASGVPSRFSGSGSGTEFTLTISSLQPDDFATYYCFQGSYYPFTFGGGTKVEIK
- Microneutralization IC50, Fab [6]: 0.0754 µg/ml and 1.51 nM
- fold higher affinity than palivizumab Fab [7]: > 117 fold
- Kd [8]: ≤ 0.041 nM
- koff [8]: ≤ 5e-06 s⁻¹
- kon [8]: 122000 M⁻¹ s⁻¹
